According to paper PMC7256037, “Identification and characterization of mammaglobin-A epitope in heterogenous breast cancers for enhancing tumor-targeting therapy” (Signal Transduction and Targeted Therapy, 2020):

Legend:
[1] = molecular target: T1, Peptide 733-3RE-2 (Homo sapiens); experiment: immunostaining of cells or tissue; pre-blocking test: synthetic peptide pre-incubated with mAb785; binding of the peptide read from the loss of immunostaining of breast cancer sections; settings: both partners purified
T1 construct: residues 42-51 of human mammaglobin-A; also called truncated peptide without PV; source: synthetic peptide
T1 chain: YKELLQEFID

[2] = molecular target: T2, human mammaglobin-A (Mam-A) protein, antigen of the ELISA and SPR (Homo sapiens, UniProt Q13296); experiment: ELISA; indirect ELISA of the mAbs on Mam-A
T2 construct: mammaglobin-A, human
T2 sequence (Q13296 19-93): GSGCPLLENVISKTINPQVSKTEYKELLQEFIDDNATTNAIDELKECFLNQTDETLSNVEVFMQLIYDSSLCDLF

[3] = molecular target: T3, mammaglobin-A (Mam-A) on breast cancer cells and in breast cancer tissue (Homo sapiens, UniProt Q13296); experiment: immunostaining of cells or tissue; ZR75.1 cells and tumor slides (GFP in the cytoplasm) fixed with cold methanol/acetone, mAb then AF594-labeled anti-mouse IgG, confocal microscopy; settings: one partner purified
T3 construct: mammaglobin-A, endogenous in human breast cancer cells and tissue; Cells were fixed with cold methanol/acetone before staining; also called membrane-associated Mam-A; source: endogenous, breast cancer cell lines (ZR75.1, MCF-7, SKBR3, MDA-MB-231) and breast cancer tissue sections
T3 sequence (Q13296 19-93): as above

binding result [1]: binds
binding result [2]: binds
binding result [3]: binds
B1: mAb785 (antibody, V domains shown)
VH: EVKLVESGGGLVKPGGSLKLSCAASGFTLSNHGMSWVRQTSEKRLEWVASISIRGNTYYLDSVEGRFTISRDDARNILYLQMSGLRSEDTAIYYCTYFTSVVWGQGTTLTVSS
VL: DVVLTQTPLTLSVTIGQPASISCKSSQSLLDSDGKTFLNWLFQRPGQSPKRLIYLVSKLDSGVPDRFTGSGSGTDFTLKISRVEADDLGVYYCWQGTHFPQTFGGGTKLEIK
notes: Whole monoclonal antibody raised against human Mam-A; detected with anti-mouse IgG secondary antibodies, so probably a mouse IgG; also called anti-Mam-A mAb785
